Data as given in paper PMC3712487.

Biological target: p27^Kip1–His6 (UniProt P46527)
UniProt P46527, sequence (P46527 whole entry): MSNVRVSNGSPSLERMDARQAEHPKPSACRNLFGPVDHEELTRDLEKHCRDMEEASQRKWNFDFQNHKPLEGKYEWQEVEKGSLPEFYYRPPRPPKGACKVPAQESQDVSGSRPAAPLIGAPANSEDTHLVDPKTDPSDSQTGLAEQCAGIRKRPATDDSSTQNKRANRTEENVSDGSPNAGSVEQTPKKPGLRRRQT

With “β1–His6 (full-length β1, wild type) (from UniProt P28072 1-239) (enzyme)” the in vitro degradation of purified p27^Kip1–His6 (1 μg) by purified β1–His6 (2 μg) at 37°C, immunoblot, time course up to 90 min was 40%.
